Data as given in patent US9751932B2, “Anti-big-endothelin-1 (big-ET-1) antibodies and uses thereof” (Regeneron Pharmaceuticals, Inc., priority 2012, dated 2017).
Numbering of substitutions follows the chain as printed. Entries after “also recorded” stand apart in the source; their conditions may differ.

Experiments:
[1] = molecular target: T1, human big-ET-1 (SEQ ID NO:434) (Homo sapiens, UniProt P05305); test: Surface plasmon resonance (Biacore) binding, mAb capture format, 37° C.; settings: for ka / kd: analyte human big-ET-1, mAb capture
T1 sequence (P05305 53-90 limits assumed): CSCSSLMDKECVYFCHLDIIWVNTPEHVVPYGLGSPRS
Experimental: (§1) Measurements were conducted on a T200 Biacore instrument (Biacore Life Sciences division of GE Healthcare, Piscataway, N.J.). […] Different concentrations of small-ET-1 (SEQ ID NO:435), human big-ET-1 (SEQ ID NO:434) or mouse big-ET-1 (SEQ ID NO:437) were injected over the anti-big-ET-1 captured surfaces at a flow rate of 100 μl/min. Peptide binding was monitored for 3 min while dissociation of mAb-bound peptide was monitored for 4 min in HBST running buffer (0.01 M HEPES pH 7.4, 0.15 M NaCl, 3 mM EDTA, 0.005% v/v Surfactant P20). Kinetic association (ka) and dissociation (kd) rate constants were determined by processing and fitting the data to a 1:1 binding model using Scrubber 2.0 curve fitting software.

[2] = molecular target: T2, mouse big-ET-1 (cleavage by mouse ECE-1) (Mus musculus, UniProt P22387); test: NFAT luciferase reporter assay (293/ETaR/NFAT-Luc cells) for blocking of ECE-1-mediated cleavage; type: cell-based; settings: read-out: Blocking IC50 20 nM mBig-ET-1 + 5 nM mECE1; human Fc mAbs (Table 5)
T2 sequence (P22387 53-91): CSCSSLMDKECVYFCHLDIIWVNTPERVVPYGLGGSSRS
Experimental: (§2) Briefly, HEK293 cell lines were generated to stably express full-length human endothelin receptor type A (ETaR) along with a luciferase reporter element [NFAT (4×)-luciferase]. A single clone was isolated and maintained in 10% FBS, DMEM, NEAA, Pen/Strep, and 500 μg/ml G418 and 100 μg/ml hygromycin B.
(§3) Both human and mouse big-ET-1 blocking experiments were allowed to incubate (37° C.; 5% CO2) overnight. The next morning these solutions were added to the 293/ETaR/NFAT-Luc cells (20,000 cells/well) and luciferase activity was detected after 5.5 hrs (37° C.; 5% CO2) using a Victor X plate reader (Perkin Elmer). The amount of luciferase activity observed under these conditions is a proportional representation of the amount of small-ET-1 generated from cleavage of either mouse or human big-ET-1.

[3] = molecular target: T3, mouse big-ET-1 (SEQ ID NO:437) (Mus musculus, UniProt P22387); test: Surface plasmon resonance (Biacore) binding, mAb capture format, 37° C.
T3 sequence (P22387 53-91 limits assumed): T2 sequence (P22387 53-91)
Experimental: as §1

[4] = tested on: C57BL/6 mice challenged with human big-ET-1 peptide; test: Mean arterial pressure changes after human big-ET-1 challenge in catheterized mice; type: in vivo, mouse
Experimental: The purpose of this Example was to evaluate the ability of an exemplary anti-big-ET-1 antibody (H2M6490N) to block […] increases in arterial pressure. Mice that had been previously infused with either blocking anti-big-ET-1 antibody or isotype control were challenged with big-ET-1 peptide. Changes in arterial pressure stemming from either big-ET-1 endogenous conversion to small-ET-1, or having its conversion blocked by circulating anti-big-ET-1 antibody, were measured. To facilitate real time measurements of arterial pressure during these experiments, mice were catheterized using standard protocols.
Briefly, naïve Taconic C57BL/6 mice (8-10 weeks of age) were anesthetized with isoflurane and the skin overlying the carotid artery and jugular vein was cut. Both the right jugular vein and left carotid artery were isolated, taking care not to damage the Vagus nerve or other blood vessels. Using standard techniques, the jugular vein was retracted and a 32-gauge needle (bent at a 90° angle) was used to puncture the vein for insertion of a saline-filled jugular vein catheter. The left carotid artery was then isolated and a Millar Micro-Tip® catheter was introduced using standard protocols. During all procedures a temperature probe was used to monitor animal body temperature, which was kept around 36.5° C. using a Gaymar heated water circulating pad. The above procedures allowed real-time pressure measurements (systolic pressure, diastolic pressure, mean arterial pressure, and body temperature) to be recorded during all big ET-1 challenge experiments.
In the first study, 150 μg (˜2 mg/kg; 1×10^−9 Moles) of H2M6490N or isotype control mAb was injected i.v. using the jugular vein port followed by a bolus of saline to flush the catheter. This caused a slight and transient drop in pressure that returned to baseline and established the T=0 for the experiment.
In a second experiment, the same experimental protocol was utilized except that H2M6490N (˜2 mg/kg; 1×10^−9 Moles) was injected subcutaneously (s.c.) into the mice 24 hrs before challenge with human big-ET-1 peptide.

[5] = molecular target: T1, human big-ET-1 (SEQ ID NO:434); test: MALDI-TOF detection of C-term peptide product from cleavage of big-ET-1 by mouse ECE-1; type: biochemical; set-up: purchased R&D Systems (mouse ECE-1 only)
Source text: Matrix Assisted Laser Desorption Ionization Time of Flight (MALDI-TOF) mass spectrometry was used to determine if selected anti-big-ET-1 antibodies could block the conversion of human big-ET-1 (SEQ ID NO:434) or mouse big-ET-1 (SEQ ID NO:437) into its respective peptides in the presence of mouse endothelin converting enzyme 1 (ECE-1). Human big-ET-1 is specifically cleaved by mECE-1 at Trp-21/Val-22 forming both biologically active small-ET-1 (SEQ ID NO:435; MH^+ 2474) and a non-active C-term product (amino acids 22-38 of SEQ ID NO:434; MH^+ 1809). Mouse big-ET-1 is cleaved at Trp-21/VaI-22 into small-ET-1 (SEQ ID NO:435; MH^+ 2474) and its non-active C-term product (amino acids 22-39 of SEQ ID NO:437; MH^+ 1875). The appearance or absence of these masses, in the presence of antibody, can be monitored by MALDI-TOF. In the example below, the presence or absence of the C-term products served as an indicator for big-ET-1 cleavage since these peptides ionize more efficiently than small-ET-1 (SEQ ID NO:435; MH^+ 2474), thereby yielding a more sensitive readout.
Briefly, human or mouse big-ET-1 (0.5 μM) was mixed with antibody (2.5 μM), in phosphate buffered saline (PBS), at a 1:5 molar ratio (big-ET-1:mAb). After a 1-hr incubation (25° C.), mouse ECE-1 (R&D Systems) was added at 40 nM and the solution was placed at 37° C. Aliquots for mass spectrometry analysis were taken at 0, 15, 30 and 60 minutes. Each aliquot was desalted via C18 Ziptip (Millipore) and analyzed in reflextron-positive mode using a Bruker Ultraflextreme MALDI-TOF instrument (Bruker Daltonics).

[6] = molecular target: T4, human big-ET-1 (cleavage by human ECE-1) (Homo sapiens, UniProt P05305); test: NFAT luciferase reporter assay (293/ETaR/NFAT-Luc cells) for blocking of ECE-1-mediated cleavage; type: cell-based; settings: read-out: Blocking IC50 10 nM hBig-ET-1 + 3 nM hECE1; human Fc mAbs (Table 5)
T4 sequence (P05305 53-90 limits assumed): T1 sequence (P05305 53-90 limits assumed)
Experimental: as §2, §3

B1: H4H6492N2: anti-big-ET-1 antibody, human IgG4 Fc; HCVR/LCVR SEQ ID NO: 418/426 (antibody, V domains shown)
VH: EVQLVESGGGLVKPGGSLRVSCVASGFTFSNAWMTWVRQTPGKGLEWVGRIKSRTDGGTVDYVAPVKGRFTISRDDSKNTLYLQMNSLKAEDTAVYYCRADLDYWGQGTLVTVSS
VL: DVVMTQSPLSLPVSLGQPASISCRSSQSLVHSDGITYLNWFQQRPGQSPRRLIYKISNRDSGVPDRFSGSGSGTDFTLKFSRVEAEDVGVYFCMQGTHWPYTFGQGTKLEIK
modifications: human IgG4 Fc
ka [1]: 424000 M/s | kd [1]: 0.0297 s⁻¹ | IC50 [2]: > 100 nM

B2: H2M6490N: anti-big-ET-1 antibody, mouse IgG2 Fc; HCVR/LCVR SEQ ID NO: 18/26 (antibody, V domains shown)
VH: EVQLLESGGGLVQPGGSLRLSCAASGFTFSSYAMTWVRQAPGKGLECISAISGSGYSTYYADSMKGRFSISRDNSKNTLYLQMNRLRAEDTAVYYCTKGGRILEWLLPFDFWGQGTLVTVSS
VL: DVVMTQSPLSLPVTLGQPASISCRSSQSLVYSDGNTYLIWFQQRPGQSPRRLIYKVSNRDSGVPDRFSGSGSGTDFTLIISRVEAEDVGLYYCMQGTHWPPTFGGGTKVEIK
modifications: mouse IgG2 Fc
binding to human big-ET-1 (in words) [1]: high affinity binding | ka [1]: 209000 M/s | kd [1]: 0.00399 s⁻¹ | binding to mouse big-ET-1 (in words) [3]: did not show any binding | Kd ([3]; analyte mouse big-ET-1, mAb capture, KD=kd/ka): > 1000 nM | Mean Pressure Change ([4]; Study 1: antibody 150 μg i.v., time 0 min, cumulative big-ET-1 0.00E+00 Moles): 0 mmHg | Mean Pressure Change ([4]; Study 1: antibody i.v., time 30 min, cumulative big-ET-1 3.85E−11 Moles, mAb:big-ET-1 26.0): −0.6 ± 2.6 mmHg | Mean Pressure Change ([4]; Study 1: antibody i.v., time 45 min, cumulative big-ET-1 1.16E−10 Moles, mAb:big-ET-1 8.7): −1.0 ± 3.5 mmHg | Mean Pressure Change ([4]; Study 1: antibody i.v., time 60 min, cumulative big-ET-1 2.32E−10 Moles, mAb:big-ET-1 4.3): 4.0 ± 4.7 mmHg | Mean Pressure Change ([4]; Study 1: antibody i.v., time 75 min, cumulative big-ET-1 4.66E−10 Moles, mAb:big-ET-1 2.1): 18.2 ± 9.6 mmHg | Mean Pressure Change ([4]; Study 1: antibody i.v., time 90 min, cumulative big-ET-1 8.16E−10 Moles, mAb:big-ET-1 1.2): 32.5 ± 20.8 mmHg | Mean Pressure Change ([4]; Study 1: antibody i.v., time 105 min, cumulative big-ET-1 1.28E−09 Moles, mAb:big-ET-1 0.8): 25.1 ± 8.3 mmHg | Mean Pressure Change ([4]; Study 1: antibody i.v., time 120 min, cumulative big-ET-1 1.87E−09 Moles, mAb:big-ET-1 0.5): −15.4 ± 8.2 mmHg | Mean Pressure Change ([4]; Study 2: antibody s.c. ~24 hr before challenge, time 0 min, cumulative big-ET-1 0.00E+00 Moles): 0 mmHg | Mean Pressure Change ([4]; Study 2: antibody s.c. ~24 hr before, time 30 min, cumulative big-ET-1 3.85E−11 Moles, ratio 26.0): 1.7 mmHg | Mean Pressure Change ([4]; Study 2: antibody s.c. ~24 hr before, time 45 min, cumulative big-ET-1 1.16E−10 Moles, ratio 8.7): 7.6 mmHg | Mean Pressure Change ([4]; Study 2: antibody s.c. ~24 hr before, time 60 min, cumulative big-ET-1 2.32E−10 Moles, ratio 4.3): 14.9 mmHg | Mean Pressure Change ([4]; Study 2: antibody s.c. ~24 hr before, time 75 min, cumulative big-ET-1 4.66E−10 Moles, ratio 2.1): 52.1 mmHg | Mean Pressure Change ([4]; Study 2: antibody s.c. ~24 hr before, time 90 min, cumulative big-ET-1 8.16E−10 Moles, ratio 1.2): 45.8 mmHg | Mean Pressure Change ([4]; Study 2: antibody s.c. ~24 hr before, time 105 min, cumulative big-ET-1 1.28E−09 Moles, ratio 0.8): 12.0 mmHg | arterial pressure response to human big-ET-1 challenge (in words) ([4]; ~2 mg/kg antibody, 30 min (i.v.) or 24 hr (s.c.) before challenge): maintained baseline mean arterial pressure until the amount of human big-ET-1 peptide approached the molar equivalent of antibody on board; also recorded: maintained normal arterial pressures longer than those mice that were treated with isotype control antibody; also recorded: effective in inhibiting endothelin-1-mediated elevation in arterial pressure in vivo | cleavage of human big-ET-1 by mouse ECE-1 (in words) [5]: no C-term product was detected | Detection of C-term Peptide Product, 0 min ([5]; Human big-ET-1, mouse ECE-1, 0 min): − | Detection of C-term Peptide Product, 15 min ([5]; Human big-ET-1, mouse ECE-1, 15 min): − | Detection of C-term Peptide Product, 30 min ([5]; Human big-ET-1, mouse ECE-1, 30 min): − | Detection of C-term Peptide Product, 60 min ([5]; Human big-ET-1, mouse ECE-1, 60 min): −

B3: H4H6490N2: anti-big-ET-1 antibody, human IgG4 Fc; HCVR/LCVR SEQ ID NO: 402/410 (antibody, V domains shown)
VH: B2 VH with C47W
VL: B2 VL
modifications: human IgG4 Fc
IC50 [6]: > 100 nM | IC50 [2]: > 100 nM
